This is an account of results in paper PMC3509150 (2012).

The target in this assay is HIV-1 capsid protein (CA), full-length (HIV-1, UniProt P12493 133-363).

B1: CANTDcb1 nanobody with C-terminal 6xHis-tag, purified (VHH)
VHH: QVQLVESGGGLVQAGGSLRLSCAASGYFSSYAMGWFRQAPGKEREFVAAISWIESTTDYADSVKGRFTISRDNAKKTLHLQMNSLKPEDTAVYYCAACDIPFGQAFCALYDYWGQGTQVTVSS
As to B1, the koff (in general, the first-order rate constant of dissociation) amounted to 0.00012 s⁻¹.
